Assay results from patent US20260152559A1 (Janssen / Centocor, published 2026).

Tests used:
[1] = target: human CD3 on cells (Jurkat cells, primary human T cells) (human) (UniProt P07766); test: flow cytometry, 10 nM antibody on Jurkat cells; no-antibody background 2075.61
[2] = target: hK2 on target cells (VCaP, LNCaP/hK2 and other hK2 positive tumor cells) (human, UniProt P20151 19-261); test: cell-based or functional assay
Chain of hK2 on target cells (VCaP, LNCaP/hK2 and other hK2 positive tumor cells) (P20151 19-261): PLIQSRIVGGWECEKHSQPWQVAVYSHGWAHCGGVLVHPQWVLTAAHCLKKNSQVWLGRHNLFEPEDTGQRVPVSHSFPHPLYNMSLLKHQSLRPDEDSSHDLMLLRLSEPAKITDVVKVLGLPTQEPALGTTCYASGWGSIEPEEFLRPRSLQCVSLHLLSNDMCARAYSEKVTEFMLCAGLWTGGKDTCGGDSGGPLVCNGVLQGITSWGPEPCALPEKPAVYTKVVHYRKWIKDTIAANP

Chain of human CD3 on cells (Jurkat cells, primary human T cells) (human) (P07766 23-207 limits assumed): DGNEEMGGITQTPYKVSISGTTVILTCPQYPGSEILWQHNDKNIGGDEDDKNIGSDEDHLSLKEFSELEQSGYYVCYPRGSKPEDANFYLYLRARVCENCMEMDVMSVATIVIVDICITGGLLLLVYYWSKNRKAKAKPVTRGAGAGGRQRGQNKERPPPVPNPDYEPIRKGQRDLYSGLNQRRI

Row | MFI (mean fluorescence index) (arbitrary units) [1] | Molecule | tumor cell growth inhibition (TGI) of VCaP cells, IncuCyte killing assay, 96 hours, E:T 1:1 or 0.5:1 [2] [%]
1 | 89200 | UCHT1 (antibody) | 
2 |  | CAR19 (KL2B359_HL) (other) QVQLQESGPGLVKPSQTLSLTCTVSGNSITSDYAWNWIRQFPGKRLEWIGYISYSGSTTYNPSLKSRVTISRDTSKNQFSLKLSSVTAADTAVYYCATGYYYGSGFWGQGTLVTVSSGGSEGKSSGSGSESKSTGGSEIVLTQSPATLSLSPGERATLSCRASESVEYFGTSLMHWYQQKPGQPPRLLIYAASNVESGIPARFSGSGSGTDFTLTISSVEPEDFAVYFCQQTRKVPYTFGGGTKVEIKTSTPAPRPPTPAPTIASQPLSLRPEACRPAAGGAVHTRGLDFACDIYIWAPLAGTCGVLLLSLVITLYCKRGRKKLLYIFKQPFMRPVQTTQEEDGCSCRFPEEEEGGCELRVKFSRSADAPAYKQGQNQLYNELNLGRREEYDVLDKRRGRDPEMGGKPRRKNPQEGLYNELQKDKMAEAYSEIGMKGERRRGKGHDGLYQGLSTATKDTYDALHMQALPPR | ~100
3 |  | CAR20 (KL2B359_LH) (other) EIVLTQSPATLSLSPGERATLSCRASESVEYFGTSLMHWYQQKPGQPPRLLIYAASNVESGIPARFSGSGSGTDFTLTISSVEPEDFAVYFCQQTRKVPYTFGGGTKVEIKGGSEGKSSGSGSESKSTGGSQVQLQESGPGLVKPSQTLSLTCTVSGNSITSDYAWNWIRQFPGKRLEWIGYISYSGSTTYNPSLKSRVTISRDTSKNQFSLKLSSVTAADTAVYYCATGYYYGSGFWGQGTLVTVSSTSTPAPRPPTPAPTIASQPLSLRPEACRPAAGGAVHTRGLDFACDIYIWAPLAGTCGVLLLSLVITLYCKRGRKKLLYIFKQPFMRPVQTTQEEDGCSCRFPEEEEGGCELRVKFSRSADAPAYKQGQNQLYNELNLGRREEYDVLDKRRGRDPEMGGKPRRKNPQEGLYNELQKDKMAEAYSEIGMKGERRRGKGHDGLYQGLSTATKDTYDALHMQALPPR | ~100
